The values below come from publication PMC7524362, “Functional analysis and cryo-electron microscopy of Campylobacter jejuni serine protease HtrA” (Gut Microbes, 2020).

Several values for one entry are separate records, joined by “and”; a condition that tells them apart may be missing. Equal values may be shown once.

The target in data set [1] is HtrACj S197A, expressed without the predicted signal peptide (residues 17-472), protease-inactive mu (Campylobacter jejuni (strain 81-176)). The experiment in a line: cryo-EM structure.
Data set [2] addresses HtrACj S197A, proteolytically inactive variant (plasmid pUZCj5) (Campylobacter jejuni (strain NCTC11168)) (UniProt Q0P928). The experiment in a line: SEC; Superose 12HR10/30, 50 mM Na2HPO4/NaH2PO4 pH 7.4, 300 mM NaCl, room temperature, 41 µM HtrA, no substrate; proteins purified under native conditions without refolding step.
For data set [3] the target is unchanged. The experiment in a line: SEC; Superose 12HR10/30, 50 mM Na2HPO4/NaH2PO4 pH 7.4, 300 mM NaCl, room temperature, 41 µM HtrA, no substrate; S/A mutants purified in presence of urea and refolded. For orientation: SEC sorts molecules by how far they enter the pores of the column.
Data set [4] has the same target. The data set is described as above. The source holds these as a separate data set.
For data set [5], the target named is HtrAHp S221A, proteolytically inactive variant of HtrA from H. pylori 26695 (plasmid pUZ3) (Helicobacter pylori (strain 26695)). The data set is described as above.
The target in data set [6] is HtrACj wild type, proteolytically active (plasmid pUZCj4) (Campylobacter jejuni (strain NCTC11168)) (UniProt Q0P928). The experiment in a line: SEC; Superose 12HR10/30, 50 mM Na2HPO4/NaH2PO4 pH 7.4, 300 mM NaCl, room temperature, 41 µM HtrA, no substrate; proteins purified under native conditions without refolding step.
Data set [7] has the same target. The experiment in a line: casein zymography (non-reducing SDS-PAGE); 50 ng purified HtrA in Laemmli buffer on 10% SDS-PAGE gels with 0.1% casein, non-reducing, renatured in 2.5% Triton X-100, developed overnight at 37°C.
Data set [8] has the same target. The experiment in a line: SEC; Superose 12HR10/30, 50 mM Na2HPO4/NaH2PO4 pH 7.4, 300 mM NaCl, room temperature; 41 µM HtrA pre-incubated with 41 µM β-casein (molar ratio 1:1) for 10 min at 37°C.
Data set [9] concerns the molecule itself. The experiment in a line: SEC; Superose 12HR10/30, 50 mM Na2HPO4/NaH2PO4 pH 7.4, 300 mM NaCl, room temperature, 41 µM HtrA, no substrate; S/A mutants purified in presence of urea and refolded.

“HtrACj S197A, expressed without the predicted signal peptide (residues 17-472), protease-inactive mu (enzyme)”: the stoichiometry N – broadly, the number of molecules, sites or subunits per partner or assembly – in data set [1] is 12.

With “HtrACj S197A, proteolytically inactive variant (plasmid pUZCj5) (from UniProt Q0P928 1-472) (enzyme)”, the stoichiometry N in [2] is 12; in data set [3], 12; in data set [4] it was over 12. For “HtrAHp S221A, proteolytically inactive variant of HtrA from H. pylori 26695 (plasmid pUZ3) (enzyme)”, in data set [5], the stoichiometry N was 3 and 6. In the case of “HtrACj wild type, proteolytically active (plasmid pUZCj4) (from UniProt Q0P928 1-472) (enzyme)”, the stoichiometry N in data set [6] came to 6; in data set [7], 3; in data set [8] it was 6.

B1: HtrAEc S210A, proteolytically inactive variant of HtrA/DegP from E. coli (plasmid pJS17) (enzyme, UniProt P0C0V0 27-474, looked up)
chain: AETSSATTAQQMPSLAPMLEKVMPSVVSINVEGSTTVNTPRMPRNFQQFFGDDSPFCQEGSPFQSSPFCQGGQGGNGGGQQQKFMALGSGVIIDADKGYVVTNNHVVDNATVIKVQLSDGRKFDAKMVGKDPRSDIALIQIQNPKNLTAIKMADSDALRVGDYTVAIGNPFGLGETVTSGIVSALGRSGLNAENYENFIQTDAAINRGNAGGALVNLNGELIGINTAILAPDGGNIGIGFAIPSNMVKNLTSQMVEYGQVKRGELGIMGTELNSELAKAMKVDAQRGAFVSQVLPNSSAAKAGIKAGDVITSLNGKPISSFAALRAQVGTMPVGSKLTLGLLRDGKQVNVNLELQQSSQNQVDSSSIFNGIEGAEMSNKGKDQGVVVNNVKTGTPAAQIGLKKGDVIIGANQQAVKNIAELRKVLDSKPSVLALNIQRGDSTIYLLMQ
notes: also called S/A mutant of HtrAEc
Take B1: in data set [9], the “stoichiometry N” value worked out at 6.
